Reference: patent US20250163149A1, “ANTI-RAGE ANTIBODY” (Swansea University, priority 2022, published 2025)
Blank lines part the entries; values can stand above or below the molecule they belong to.

Columns and labels:
[1] = biological target: Human rRAGE, full-length RAGE recombinant protein from Merck (human) (UniProt Q15109); assay: SPR, antibody amine-coupled to a CM5 chip as ligand, rRAGE protein as analyte at 0.0156-0.35 µM, 1:1 binding fit
[2] = biological target: synthetic peptide S155 of the RAGE V-domain (amino acids 39-65) (human); assay: SPR, antibody amine-coupled to a CM5 chip as ligand, peptide S155 (B-Rad) as analyte at 0.25-4 µM, 1:1 binding fit
[3] = biological target: synthetic peptide S155 of the RAGE V-domain (amino acids 39-65) (human); assay: SPR (Biacore T200), antibody amine-coupled to a CM5 chip as ligand, RAGE peptide S155 (BioRad) as analyte, multi-cycle kinetics, 1:1 fit; 'No steady state.'
RAGE = RAGE (Homo sapiens, UniProt Q15109); assay: Binding target blocking assay by immunofluorescence on HEC-1A cells; assay type: cell-based; parameters: endogenous in cells; host or cells: HEC-1A (ECACC); conditions: then antibody at 4 μg/ml
Procedure: To proof that HA9 shares similar binding epitope as other α-RAGE antibodies, an immunofluorescence approach was used. For this purpose, 1.5×10^4 HEC1A cells/well (obtained from the European Collection of Authenticated Cell Cultures, ECACC, Public Health England, UK) were seeded in 8-well chamber slides (Ibidi) in 300 μl of stripped medium and cultured for 24 h in a humidified, 5% CO2 in air atmosphere incubator at 37° C. After culture, cells were fixed with 4% paraformaldehyde (Sigma) for 20 minutes, permeabilized with 0.1% Triton X-100 (Sigma) for 10 minutes at 4° C. and blocked with 3% BSA in PBS for 1 h. Cells were then pre-incubated with a primary antibody against RAGE at a concentration in excess (20 μg/ml in 3% BSA in PBS for 1 h) to block the specific epitope they bind, before cells were incubated with the α-RAGE antibody of interest at 4 μg/ml in 3% BSA-PBS overnight at 4° C. This was followed by 1 h incubation with Alexa-fluorophore-conjugated secondary antibodies. Cells were washed with PBS extensively between all steps, counterstained before imaging with Hoechst (Life Technologies™) and imaged using a LSM710 confocal fluorescence microscopy system (Zeiss, UK). The mean intensity of fluorescence was obtained using imageJ by measuring the integrated density per imaged field, normalised by the number of cells in the respective field and obtaining the mean from >10 fields obtained per condition. A decrease in fluorescence in the pre-blocked condition compared with the not-pre-blocked condition means both antibodies share similar epitope of binding on the same protein.

[4] = biological target: T1, synthetic peptide S155 of the RAGE V-domain (amino acids 39-65) (human); assay: SPR (Biacore T200), antibody amine-coupled to a CM5 chip as ligand, RAGE peptide S155 (BioRad) as analyte, multi-cycle kinetics, 1:1 fit; 'No steady state.'
T1 construct: injected as analyte in SPR; also called RAGE synthetic peptide
T1 peptide: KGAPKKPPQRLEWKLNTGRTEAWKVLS
Procedure: This was followed by diluting the ligand with the appropriate Acetate buffer to at least 10 μg/mL. The ligand immobilization on the surface Series S Sensor Chip CM5 (29-1496-03, Cytiva) was performed using the Amine Coupling Kit (BR100050, Cytiva) containing 1-Etyhyl-3-(3-dimethylaminopropyl)-carbodiimide hydrochloride (EDC), N-Hydroxysuccinimide (NHS) and 1.0M ethanolamine-HcL PH 8.5 in accordance with the manufacturer's instructions. For each experimental run, the ligand was immobilized in flow cells 2 or 4 while flow cells 1 or 3 were left unmodified. […] Following each binding cycle, the surface was regenerated with a 30 s injection of 10 mM Glycine-HcL, pH 2.5 regeneration solution (BR-1003-56), removing the bound antibody with a contact time of 30 s, flow rate of 30 μL/min and a stabilization period of Os. Blank cycles (buffer only injection followed by regeneration step) was also performed. Data was double referenced by first subtracting responses from the reference flow cell and then subtracting the blank cycles. Data was then fitted to a 1:1 binding model using Biacore™ T200 Evaluation Software 2.0 and Biacore™ Insight Evaluation Software.
SPR analysis was subsequently used to evaluate the binding kinetics of the different murine clones to their targets (either using synthetic peptide used to produce the clones or recombinant RAGE protein (Uniprot reference: Q15109-1) Peptide S155=Original peptide from Biorad used to produce the murine clones. Human rRAGE=Full-length RAGE recombinant protein from Merck). The SPR parameters used for this analysis are described in the detailed methods.

[5] = biological target: T1, synthetic peptide S155 of the RAGE …; assay: SPR (Biacore T200), antibody amine-coupled to a CM5 chip as ligand, RAGE Peptide (S155) as analyte, multi-cycle kinetics, 1:1 fit; 'No steady state.'
Procedure: (§1) Data were then fitted to a 1:1 binding model.
(§2) For on-rate and off-rate screening, Biacore™ T200 system (Cytiva, Uppsala, Sweden) was used to perform SPR analysis with 1×HBS-EP+ buffer (0.01M Hepes, 0.15M NaCl, 0.003M ethylenediaminetetraacetic acid, and 0.05% Surfactant P20, pH 7.4) (BR100669) used as sample and running buffer. The analysis temperature at the sensor chip surface and within the compartment was set to 25° C. Firstly, pH scouting with 10 mM sodium acetate buffer 4.0 (BR-1003-49), 10 mM sodium acetate buffer 4.5 (BR-1003-50), 10 mM sodium acetate buffer 5.0 (BR-1003-51) and 10 mM sodium acetate buffer 5.5 (BR-1003-52) was performed to identify the optimal pH required for ligand (α-RAGE antibodies) immobilization. This was followed by diluting the ligand with the appropriate Acetate buffer to at least 10 μg/mL. The ligand immobilization on the surface Series S Sensor Chip CM5 (29-1496-03, Cytiva) was performed using the Amine Coupling Kit (BR100050, Cytiva) containing 1-Etyhyl-3-(3-dimethylaminopropyl)-carbodiimide hydrochloride (EDC), N-Hydroxysuccinimide (NHS) and 1.0M ethanolamine-HcL PH 8.5 in accordance with the manufacturer's instructions. For each experimental run, the ligand was immobilized in flow cells 2 or 4 while flow cells 1 or 3 were left unmodified.

[6] = biological target: T1, synthetic peptide S155 of the RAGE …; assay: ELISA, BSA-conjugated peptide S155 on the plate, two-fold dilutions of antibody, HRP anti-mouse, OD 450 nm
Procedure: FIG. 2: Screening of purified anti-RAGE antibodies by enzyme linked immunosorbent assay (ELISA). BSA-conjugated synthetic peptides of RAGE protein were immobilized onto microplates and incubated with two-fold serial dilutions of antibodies.
A 96-well plate was coated with 5 μg/ml of RAGE synthetic peptides or RAGE recombinant protein diluted in phosphate-buffered saline (pH 7.4) overnight at 4° C. The solution was removed, washed with PBS-Tween (PBST) and the plate was blocked with ELISA ultrablock buffer (Biorad) for 1 h at room temperature. After blocking, the plate was washed with PBST and a range of concentrations of α-RAGE antibodies was applied to the plate for 2 h at room temperature. The plate was washed thoroughly with PBST and incubated with HRP-conjugated anti-mouse antibodies diluted 1:1000 in PBS-Tween. After washes with PBST, TMB Core+ substrate solution (Biorad) was added to each well and incubated at room temperature for 30 minutes. 0.2M H2SO4 was used as a stop solution. Absorbance at 450 nm was measured in a Biorad absorbance microplate reader.
The initial screening of the 6 murine antibody clones against RAGE was undertaken by ELISA. For this evaluation a range of 15 concentrations of each antibody clone was applied to the plate.

[7] = biological target: T1, synthetic peptide S155 of the RAGE …; assay: SPR (Biacore T200), antibody amine-coupled to a CM5 chip as ligand, RAGE Peptide (S155) as analyte, multi-cycle kinetics, 1:1 fit
Procedure: as §1, §2

Sequence of Human rRAGE, full-length RAGE recombinant protein from Merck (human) (Q15109 23-404 limits assumed): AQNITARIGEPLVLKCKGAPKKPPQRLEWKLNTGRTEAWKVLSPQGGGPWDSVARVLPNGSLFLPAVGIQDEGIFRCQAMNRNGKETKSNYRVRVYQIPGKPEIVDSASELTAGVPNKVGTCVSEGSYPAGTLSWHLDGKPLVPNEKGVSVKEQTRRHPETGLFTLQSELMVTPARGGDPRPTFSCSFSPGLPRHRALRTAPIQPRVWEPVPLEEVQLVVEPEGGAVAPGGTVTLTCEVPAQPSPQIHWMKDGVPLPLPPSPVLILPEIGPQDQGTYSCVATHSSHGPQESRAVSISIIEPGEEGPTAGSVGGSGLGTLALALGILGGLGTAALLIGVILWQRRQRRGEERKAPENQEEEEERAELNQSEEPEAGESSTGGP
Sequence of RAGE (Q15109 23-404): as the sequence (Q15109 23-404 limits assumed) above

B1: murine BC3 anti-RAGE monoclonal antibody (antibody, part only; not given: Light chain variable region, V domains shown, part only)
VH: QVQLKQSGPGLVQPSQSLSITCTVSGFSLTNYGVHWVRQSPGKGLEWLGVIWTGGNTDYNAAFISRLSITKDNSKSQVFFKMNSLQANDTAIYYCARNLRGGYYGAWFAYWGQGTLVTVSA
Kd [3]: 890 nM | koff [3]: 0.00333 s⁻¹ | kon [3]: 3720 M⁻¹ s⁻¹

B2: CG7: anti-RAGE antibody clone raised against RAGE peptide aa 39-65 (antibody, V domains shown)
VH: QVQLKQSGPGLVQPSQSLSITCTVSGFSLTNYGVHWVRQSPGKGLEWLGVIWTGGNTDYNAAFISRLSITKDNSKSQVFFKMNSLQANDTAIYYCARNLRGGYYGAWFAYWGQGTLVTVSA
VL: DVVMTQTPLSLPVSLGDQASISCRSSQTLVHSNGNTYLHWYLQKPGQSPKLLIYKVSNRFSGVPDRFTGSGSGTDFTLKISRVEAEDLGVYFCSQSTHVPPLTFGAGTKLELK
staining after Abcam antibody pre-blocking (RAGE; Abcam antibody 20 μg/ml pre-incubation): did not result in a decrease | staining after N16 pre-blocking (RAGE; N16 20 μg/ml pre-incubation): unaffected

B4: Anti-CG7 (Chimeric) (antibody, V domains shown)
VH: QVQLKQSGPGLVQPSQSLSITCTVSGFSLTNYGVHWVRQSPGKGLEWLGVIWTGGNTDYNAAFISRLSITKDNSKSQVFFKMNSLQANDTAIYYCARNLRGGYYGAWFAYWGQGTLVTVSA
VL: DVVMTQTPLSLPVSLGDQASISCRSSQTLVHSNGNTYLHWYLQKPGQSPKLLIYKVSNRFSGVPDRFTGSGSGTDFTLKISRVEAEDLGVYFCSQSTHVPPLTFGAGTKLELK
notes: also called hCG7; chimeric CG7
Kd [5]: 320 nM | koff [5]: 0.0095 s⁻¹

B5: murine BG7 anti-RAGE monoclonal antibody (antibody, V domains shown)
VH: EVKLDETGGGLVQPGRPMKLSCIASGFTLSDYWMNWVRQSPEKGLEWVAQIRNRPYNFETLYSDSVKGRFIISRDDSKNSVYLQMDNLGPDDSGIYYCSSYRYGLAYWGQGTLVTVSA
VL: DILLTQSPAILSVSPGERVSISCRASQTIDKRIHWYQQRTNGSPRLLIKYMSESISGTPSRFSGSGSGTDFTLTINSVESEDIAVYYCQQTNYWPITFGSGTKLELK
notes: Murine hybridoma antibody
Kd [4]: 410 nM | koff [4]: 0.02 s⁻¹ | kon [4]: 49000 M⁻¹ s⁻¹ | EC50 (read off the curve) [6]: ~0.02 µg/mL

B7: Anti-BG7 (Chimeric) (antibody, V domains shown)
VH: EVKLDETGGGLVQPGRPMKLSCIASGFTLSDYWMNWVRQSPEKGLEWVAQIRNRPYNFETLYSDSVKGRFIISRDDSKNSVYLQMDNLGPDDSGIYYCSSYRYGLAYWGQGTLVTVSA
VL: DILLTQSPAILSVSPGERVSISCRASQTIDKRIHWYQQRTNGSPRLLIKYMSESISGTPSRFSGSGSGTDFTLTINSVESEDIAVYYCQQTNYWPITFGSGTKLELK
notes: also called hBG7; chimeric BG7
Kd [5]: 607 nM | koff [5]: 0.0028 s⁻¹

B9: chimeric HA9 (hHA9) anti-RAGE antibody (antibody, V domains shown)
VH: EVKLVETGGGLVQPGRPMKLSCVASGFTLSDHWMNWVRQSPEKGLEWVAQIRNRPYKFEKYYSDSVKGRFTISRDDSKNSVYLQMNNLRAEDMGIYYCSSYRYGLAYWGQGTLVTVST
VL: DNLLTQSPAILSVSPGERVSFSCRASQTIDTRIHWYQQRKNGSPRLLIRYISESLSGIPSRFSGSGSGTEFTLTINSVESEDIADYYCQQTESWPITFGSGTKLEIK
notes: Chimeric ('chimeric humanised format') version of HA9 made in HEK293 by Absolute Antibody
Kd [7]: 203 nM | koff [7]: 0.0032 s⁻¹

Other lines, results leading:

Kd [1]: 4.31 nM | koff [1]: 0.00077 s⁻¹ | kon [1]: 180000 M⁻¹ s⁻¹ | Kd [2]: 54.1 nM | koff [2]: 4.46 s⁻¹ | kon [2]: 8.2e+07 M⁻¹ s⁻¹
Molecule: α-RAGE Abcam (Abcam, ab37647) (antibody)

Kd [4]: 296 nM | koff [4]: 0.00901 s⁻¹ | kon [4]: 30000 M⁻¹ s⁻¹
B3: murine CG7 (mCG7) anti-RAGE monoclonal antibody (antibody, V domains shown)
VH: QVQLKQSGPGLVQPSQSLSITCTVSGFSLTNYGVHWVRQSPGKGLEWLGVIWTGGNTDYNAAFISRLSITKDNSKSQVFFKMNSLQANDTAIYYCARNLRGGYYGAWFAYWGQGTLVTVSA
VL: DVVMTQTPLSLPVSLGDQASISCRSSQTLVHSNGNTYLHWYLQKPGQSPKLLIYKVSNRFSGVPDRFTGSGSGTDFTLKISRVEAEDLGVYFCSQSTHVPPLTFGAGTKLELK
notes: Murine hybridoma antibody

Kd [4]: 860 nM | koff [4]: 0.00326 s⁻¹ | kon [4]: 3790 M⁻¹ s⁻¹ | EC50 (read off the curve) [6]: ~0.02 µg/mL
B6: murine IG7 anti-RAGE monoclonal antibody (antibody, V domains shown)
VH: EVKLDETGGGLVQPGRPMKLSCIASGFTLSDYWMNWVRQSPEKGLEWVAQIRNRPYNFETLYSDSVKGRFIISRDDSKNSVYLQMDNLGPDDSGIYYCSSYRYGLAYWGQGTLVTVSA
VL: DILLTQSPAILSVSPGERVSISCRASQTIDKRIHWYQQRTNGSPRLLIKYMSESISGTPSRFSGSGSGTDFTLTINSVESEDIAVYYCQQTNYWPITFGSGTKLELK
notes: Same VH and VL as BG7; also called ID7

Kd [4]: 720 nM | koff [4]: 0.0033 s⁻¹ | EC50 (read off the curve) [6]: ~0.01 µg/mL
B8: murine HA9 (mHA9) anti-RAGE monoclonal antibody (antibody, V domains shown)
VH: EVKLVETGGGLVQPGRPMKLSCVASGFTLSDHWMNWVRQSPEKGLEWVAQIRNRPYKFEKYYSDSVKGRFTISRDDSKNSVYLQMNNLRAEDMGIYYCSSYRYGLAYWGQGTLVTVST
VL: DNLLTQSPAILSVSPGERVSFSCRASQTIDTRIHWYQQRKNGSPRLLIRYISESLSGIPSRFSGSGSGTEFTLTINSVESEDIADYYCQQTESWPITFGSGTKLEIK
notes: Murine hybridoma antibody, purified on protein G; also called HA9 clone
